Results on seven molecules are retold here after paper PMC7746861, “Acetate Metabolism in Archaea: Characterization of an Acetate Transporter and of Enzymes Involved in Acetate Activation and Gluconeogenesis in Haloferax volcanii” (Frontiers in Microbiology, 2020).

For data set [1], the target named is Malic enzyme Mae1 from Haloferax volcanii, recombinant (Haloferax volcanii). Description: SEC; Superdex 200 HiLoad column (1.6 x 60 cm), flow rate 1 ml per min, calibrated with HMW and LMW kits (GE Healthcare); native mass compared with the subunit mass by SDS-PAGE; 50 mM Tris-HCl, pH 7.5, 1.5 M KCl.
Substrate in data set [2]: CC(=O)O
Description: purified protein. The settings on record: acetate activation, ATP, CoA.

Substrate in data set [3]: CC(C)(COP(=O)(O)OP(=O)(O)OC[C@H]1O[C@@H](n2cnc3c(N)ncnc32)[C@H](O)[C@@H]1OP(=O)(O)O)[C@@H](O)C(=O)NCCC(=O)NCCS
Description: purified protein. Format: biochemical, Haloferax volcanii. The settings on record: acetate activation, ATP, CoA.

Substrate in data set [4]: Nc1ncnc2c1ncn2[C@@H]1O[C@H](COP(=O)(O)OP(=O)(O)OP(=O)(O)O)[C@@H](O)[C@H]1O
Description: purified protein. Format: biochemical, Haloferax volcanii. The settings on record: acetate activation, ATP, CoA.

Data set [5] deals with the molecule itself. Description: SEC; Superdex 200 HiLoad column (1.6 x 60 cm), flow rate 1 ml per min, calibrated with HMW and LMW kits (GE Healthcare); native mass compared with the subunit mass by SDS-PAGE; 50 mM Tris-HCl, pH 7.5, 1.5 M KCl. (In gel filtration, larger molecules generally elute earlier.)
Data set [6] concerns the molecule itself. The description is as above. The source holds these as a separate data set.
Substrate in data set [7]: O=C(O)C[C@H](O)C(=O)O
Description: purified protein. To be noted: NADP+, MnCl2, 4 M KCl, pH 5.75, 42°C, pH 5.75.

Substrate in data set [8]: NC(=O)C1=CN([C@@H]2O[C@H](COP(=O)(O)OP(=O)(O)OC[C@H]3O[C@@H](n4cnc5c(N)ncnc54)[C@H](OP(=O)(O)O)[C@@H]3O)[C@@H](O)[C@H]2O)C=CC1
Description: purified protein. The class given is biochemical, Haloferax volcanii. To be noted: reverse reaction, pyruvate, NaHCO3, MnCl2, 4 M KCl, pH 5.75, 42°C, varied: cofactor.

Substrate in data set [9]: NC(=O)c1ccc[n+]([C@@H]2O[C@H](COP(=O)(O)OP(=O)(O)OC[C@H]3O[C@@H](n4cnc5c(N)ncnc54)[C@H](OP(=O)(O)O)[C@@H]3O)[C@@H](O)[C@H]2O)c1
Nature of the data set: purified protein. To be noted: L-malate, MnCl2, 4 M KCl, pH 5.75, 42°C, varied: cofactor. Format: biochemical, Haloferax volcanii.

Substrate in data set [10]: CC(=O)SCCNC(=O)CCNC(=O)[C@H](O)C(C)(C)COP(=O)(O)OP(=O)(O)OC[C@H]1O[C@@H](n2cnc3c(N)ncnc32)[C@H](O)[C@@H]1OP(=O)(O)O
Description: purified protein. The class given is biochemical, Haloferax volcanii. To be noted: acetate formation (reverse), AMP, PPi, MgCl2, 2 M KCl, pH 7.0, 42°C.

[11] abbreviates: recombinant, MgCl2, 2 M KCl, pH 7.5, 42°C, pH 7.5.
Setting [12] is: recombinant, MgCl2, 2 M KCl, pH 7.5, 42°C.
[13] abbreviates: MgCl2, 1 M KCl, pH 7.0, 42°C, pH 7.0.

Like-named read-outs stand apart in the source and are kept apart here.

For the molecule “Malic enzyme Mae1 from Haloferax volcanii, recombinant”, the stoichiometry N (as a rule, the number of molecules, sites or subunits per partner or assembly) in [1] was 8.

B1: ACS2 (Haloferax volcanii DS2) (protein)
chain: MKKPLLVTEFLDRARRYYGDEEAVVATTGERFTYDELGERADGFSAALQSRGVEKGDRVAVLDPNTHYHLEAAYGSMQLGAVHMPLNYRLVPADFEYVLNDADVTAVYADYAFAEKIDAVRDEIPAEIFVTNDPEKAAESTDGEWLDFDELVAESTDYERPEMDEDDIITINYTSGTTGDPKGVCRTHRAETIHAYLISMHQDIGDDDVYLWTLPMFHVNGWGHIYAITGHGAKHVCTRGVEAEAVLDAIRDEDVSYLCAAPTVLNILMKHYREEGGVETTGASPVRAATAGAAPPEATIRTVEDEFGWRLMHVYGATETGPLITTSEAGRYLTDGDDRFGVKKKQGIGYLGTDVRVVDEDGTDVPRDEQSVGEIVVTGNQVMEKYWNKPEETEEAFSARLEGYYHMGDLAVVDENGFISIQDRKKDIIISGGENISSIELEDTLFDHDEVADVAVIPVPSDEWGESPKAFVVPTSGDPDAPGVTAEALIAFCRERIATYKVPKEVEFVTELPKTATGKVQKYELREREWEDEGRMMGEG
notes: full length, Ni-NTA purified (pTA963), homologous expression in H. volcanii
With B1, the Km – broadly, the concentration of substrate that gives half-maximal velocity – in data set [2] (setting [11]) is 1500 µM; in data set [3] (setting [12]), 2210 µM; in data set [4] (setting [12]), 430 µM. Further, the Vmax (usually the top rate of the reaction or transport when substrate is in excess) in data set [2] (setting [11]) is 1.5 µmol/min/mg.

B2: AMP-forming acetyl-CoA synthetase ACS2 purified from acetate-grown Haloferax volcanii cells (enzyme, UniProt D4GUW5 1-540, looked up)
chain: MKKPLLVTEFLDRARRYYGDEEAVVATTGERFTYDELGERADGFSAALQSRGVEKGDRVAVLDPNTHYHLEAAYGSMQLGAVHMPLNYRLVPADFEYVLNDADVTAVYADYAFAEKIDAVRDEIPAEIFVTNDPEKAAESTDGEWLDFDELVAESTDYERPEMDEDDIITINYTSGTTGDPKGVCRTHRAETIHAYLISMHQDIGDDDVYLWTLPMFHVNGWGHIYAITGHGAKHVCTRGVEAEAVLDAIRDEDVSYLCAAPTVLNILMKHYREEGGVETTGASPVRAATAGAAPPEATIRTVEDEFGWRLMHVYGATETGPLITTSEAGRYLTDGDDRFGVKKKQGIGYLGTDVRVVDEDGTDVPRDEQSVGEIVVTGNQVMEKYWNKPEETEEAFSARLEGYYHMGDLAVVDENGFISIQDRKKDIIISGGENISSIELEDTLFDHDEVADVAVIPVPSDEWGESPKAFVVPTSGDPDAPGVTAEALIAFCRERIATYKVPKEVEFVTELPKTATGKVQKYELREREWEDEGRMMGEG
notes: AMP-forming acetyl-CoA synthetase ACS2 of Haloferax volcanii, gene acs2, locus tag HVO_0896; identified by MALDI-TOF MS of the 69 kDa subunit; Native enzyme, no tag; also called HVO_0896
With B2, the “stoichiometry N” value in [5] came out at 2.

B3: AMP-forming acetyl-CoA synthetase ACS2 from Haloferax volcanii, recombinant (enzyme, UniProt D4GUW5 1-540, looked up)
chain: MKKPLLVTEFLDRARRYYGDEEAVVATTGERFTYDELGERADGFSAALQSRGVEKGDRVAVLDPNTHYHLEAAYGSMQLGAVHMPLNYRLVPADFEYVLNDADVTAVYADYAFAEKIDAVRDEIPAEIFVTNDPEKAAESTDGEWLDFDELVAESTDYERPEMDEDDIITINYTSGTTGDPKGVCRTHRAETIHAYLISMHQDIGDDDVYLWTLPMFHVNGWGHIYAITGHGAKHVCTRGVEAEAVLDAIRDEDVSYLCAAPTVLNILMKHYREEGGVETTGASPVRAATAGAAPPEATIRTVEDEFGWRLMHVYGATETGPLITTSEAGRYLTDGDDRFGVKKKQGIGYLGTDVRVVDEDGTDVPRDEQSVGEIVVTGNQVMEKYWNKPEETEEAFSARLEGYYHMGDLAVVDENGFISIQDRKKDIIISGGENISSIELEDTLFDHDEVADVAVIPVPSDEWGESPKAFVVPTSGDPDAPGVTAEALIAFCRERIATYKVPKEVEFVTELPKTATGKVQKYELREREWEDEGRMMGEG
notes: AMP-forming acetyl-CoA synthetase ACS2 of Haloferax volcanii, gene acs2, locus tag HVO_0896; calculated subunit 59.8 kDa; gene amplified from genomic DNA; also called recombinant ACS2; HVO_0896; source: H. volcanii H1209 (plasmid pTA963, homologous overexpression), purified (Ni-NTA, size exclusion chromatography)
With B3, the “stoichiometry N” value in [6] stood at 2.

B4: Mae1 (Haloferax volcanii DS2) (protein)
chain: MGLDDDSRKYHRQDPPGKIEIATTKPTNTQRDLSLAYSPGVAAPCLDIAEDEDAAYEYTAKGNLVGVVSNGSAVLGLGDIGAQASKPVMEGKGVLFKRFADIDVFDVELDIADVDDFVAATKAMEPTFGGINLEDIKAPECFEIERQLREQMDIPVFHDDQHGTAIISGAALLNAADIVDKDLDELDIVFSGAGASALATARFYVSLGAKKENITMCDSSGIITESRVEDGDVNKYKAEFAKPVDEGSLSDAMEGADVLAGLSVGGIVSQEMVRSMADNPVIFAMANPDPEITYEDAKDARDDTVIMATGRSDYPNQVNNVLGFPFIFRGALDVRATEINEAMKRAAAEALAELARQDVPDAVVKAYGDHPLQFGADYVIPKPLDPRVLFEVAPAVAQAAMTSGAARERLDMNAYREELEARLGKSREMMRVVLNKAKSNPKRVALAEGEDEKMIRAAYQMQEEGIAEPILVGETTTILRKAEELGLDFDPTIANPRDGEWDHYVDRLYELRQRKGVTNSEAEELVRRDSNYFASVMVEVGDADAMLTGLTHHYPSALRPPLQIIGTADDADYAAGVYMMTFKNRVVFCADTTVNLDPDEEVLAEITKHTADLARQFNVEPRAALLSYSNFGSVTNEGTRKPRDAAALLQDDPEVDFPVDGEMQADTALVEDILEGTYDFAELDGPANVLVFPNLEAGNIGYKLLQRLGGAEAIGPMLVGMDKPVHVLQRGDEVKDIVNLAATAVVDAQEE
notes: full length with C-terminal PTA domain, Ni-NTA purified, homologous expression in H. volcanii
For B4, the Km in data set [7] is 650 µM; in [8] it was 100 µM; in data set [9], 60 µM.

B5: AMP-forming acetyl-CoA synthetase ACS1 from Haloferax volcanii, recombinant (enzyme, UniProt D4GUW1 1-662, looked up)
chain: MADGDTELEARLVEQEEFEPSEEFVAQANVSDPAVYDEFEENWPDCWERAAEMLDWDEKYDEVLDDSNPPFYEWFTGGKLNVSYNCVDRHVENGDKNRVAIKWEGEHGETRTYTYQDLYREVNEFAAALRDLGVEEDDVVTLYMPMIPELPIAMLACARIGAPHSVVFGGFSAEALATRMNAADSRFLVTCDGYYRRGDPLDHLDKANEGLDGVDHGVDATVVVDRLGDDGFDHDLKGNQHDWDDLLDEHAGERIDPVERDAEDMLFLMYTSGTTGQPKGVKHTTGGYLAYAAWTSHAVLDIEKEDTYWCSADIGWITGHSYIVYGPLALGTTTVMYEGTPDFPNRDRLWDIIEKYAVDIFYTAPTAIRAFMKWGSRFPEQHDLSSLRLLGTVGEPINPRAWKWYYKHIGNEDCPVVDTWWQTETGGMMITTLPGIKKMKPGSAGPPLPGIDAQIVDTSGKQVDAGRAGYLTVNKPWPGMLRTLYKNDERFIQEYWQEYSDTDSDDPDDWVYFPEDGAKIDGDDYITILGRVDDVINVSGHRLGTMEIESAIVGVEGVAEAAVVGGNHEVKGEAVYAYVITEEGQDEDDEMRGRIIEGVEDAIGPIARPEMVVFTPELPKTRSGKIMRRLLEEIANGEELGDTTTLRNPEVVESIQRQVESE
notes: AMP-forming acetyl-CoA synthetase ACS1 of Haloferax volcanii, gene acs1, locus tag HVO_0894; calculated subunit 71.2 kDa; gene amplified from genomic DNA; also called HVO_0894; source: H. volcanii H1209 (plasmid pTA963, homologous overexpression), purified (Ni-NTA, Superdex 200)
B5: the Km in data set [2] (setting [13]) turned out to be 90 µM; in data set [10], 570 µM; in [3] (MgCl2, 1 M KCl, pH 7.0, 42°C), 730 µM; in data set [4] (MgCl2, 1 M KCl, pH 7.0, 42°C) it was 480 µM. Besides, the Vmax amounted to 0.4 µmol/min/mg in [2] (setting [13]) and 0.25 µmol/min/mg in data set [10]. The “stoichiometry N” value in data set [6] is 2.

B6: AMP-forming acetyl-CoA synthetase ACS9 from Haloferax volcanii, recombinant (enzyme, UniProt D4GRL3 1-538, looked up)
chain: MKKQLLVTDFLDRARTYYGDYEAVVGVDGERFTYAEFGERVDRFSAALQSRGVEKGDRVAVLDPNTHYHLEAAFGAMQCGALHVPLNYRLTTDDYEYLLSDSGATVVYADYQYAGKIEAVRDDVPAEVFVTNDPAAVDGDWLDFEAFLDEADADDYERPEMSEDELITINYTSGTTGDPKGVCRTHRTESLHAQLVTIHHHIGDDDVYLWTLPMFHVNGWGHIYAVTGRGAKHVCTRGVEAEAVFDAITEEDVSFFCCAPTVLSILREYAEEHDPAYAGDNPVRVTAAGSAAPSATIRHTESEFGWEFTQLYGATETGPLIATSDANRLIPDEGGLRFSLKQRQGVAPLGTDLRVVDDDGEQVPRGDATIGEVVVRGNQVMEKYWNKPDETHDAFNDRLEGWYHTGDLAVVNEDGMIAIQDRKKDIIISGGENISSVELEDALFDHDAVGDVAVIPAPSEKWGETPKAFVVPANGDVENPGVTAEELTAYTRDRLAGYKAIREFEFVAEIPKTATGKIQKYELRKREWDDEERMVGQG
notes: 59 kDa subunits; gene amplified from genomic DNA; source: H. volcanii H1209 (plasmid pTA963, homologous overexpression), purified (Ni-NTA, Superdex 200)
For B6, the “stoichiometry N” value in data set [5] stood at 2.
